Data reported in patent US20240150474A1 (Regeneron, published 2024).

T1: dimeric human ACVR1 (human, UniProt Q04771 21-123, limits assumed)
T1 construct: ACVR1'; also called Human Receptor ACVR1
T1 sequence (looked up): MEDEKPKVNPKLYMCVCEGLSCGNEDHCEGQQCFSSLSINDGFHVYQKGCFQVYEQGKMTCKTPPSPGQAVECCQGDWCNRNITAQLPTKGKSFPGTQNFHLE

T2: dimeric mouse ACVR1 (mouse, UniProt P37172 21-123, limits assumed)
T2 construct: also called Mouse Receptor ACVR1
T2 sequence (looked up): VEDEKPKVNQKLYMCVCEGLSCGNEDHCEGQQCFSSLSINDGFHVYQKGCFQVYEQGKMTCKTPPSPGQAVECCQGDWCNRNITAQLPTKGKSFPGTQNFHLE

T3: dimeric mouse ACVRL1 (mouse, UniProt Q61288 23-119, limits assumed)
T3 construct: Construct and dimerising part not described; also called Mouse Receptor ACVRL1
T3 sequence (looked up): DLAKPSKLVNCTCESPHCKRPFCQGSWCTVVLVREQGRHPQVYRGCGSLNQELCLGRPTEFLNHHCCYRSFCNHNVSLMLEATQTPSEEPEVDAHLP

T4: dimeric human BMPR1B (human, UniProt O00238 14-126, limits assumed)
T4 construct: Construct and dimerising part not described; also called Human Receptor BMPR1B
T4 sequence (looked up): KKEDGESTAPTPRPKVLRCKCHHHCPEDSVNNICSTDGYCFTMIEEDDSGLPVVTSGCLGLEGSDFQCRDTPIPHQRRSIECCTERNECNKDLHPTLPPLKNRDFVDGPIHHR

T5: dimeric mouse BMPR1B (mouse, UniProt P36898 14-126, limits assumed)
T5 construct: Construct and dimerising part not described; also called Mouse Receptor BMPR1B
T5 sequence (looked up): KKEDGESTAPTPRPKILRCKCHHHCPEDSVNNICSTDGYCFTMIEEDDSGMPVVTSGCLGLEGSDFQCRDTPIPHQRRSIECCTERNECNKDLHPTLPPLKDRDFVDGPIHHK

T6: mouse ACVR1 extracellular domain expressed with a C-terminal myc-myc-hexahistidine tag (mouse)
T6 construct: also called mACVR1-mmh; mACVR1.mmh
T6 chain: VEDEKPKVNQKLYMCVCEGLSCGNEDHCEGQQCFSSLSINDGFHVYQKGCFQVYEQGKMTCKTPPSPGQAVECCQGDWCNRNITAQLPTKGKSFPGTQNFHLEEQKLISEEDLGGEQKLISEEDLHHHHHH

T7: human ACVR1 extracellular domain expressed with a C-terminal myc-myc-hexahistidine tag (human)
T7 construct: also called hACVR1-mmh; hACVR1.mmh
T7 chain: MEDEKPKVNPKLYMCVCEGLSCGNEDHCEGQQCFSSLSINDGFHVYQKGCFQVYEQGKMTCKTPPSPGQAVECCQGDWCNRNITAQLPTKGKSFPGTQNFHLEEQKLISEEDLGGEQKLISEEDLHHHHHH


Legend:
[1] = molecular target: full length human ACVR1 (amino acids 1-509, R206H, of accession #Q04771) on HEK293/BRE-luc/hACVR1-R206H-clone H2 cells (human) (UniProt Q04771); test: flow cytometry, secondary antibody alone on HEK293/hACVR1-R206H cells, 4C
[2] = molecular target: full length human ACVR1 (amino acids 1-509, R206H, of accession #Q04771) on HEK293/BRE-luc/hACVR1-R206H-clone H2 cells (human) (UniProt Q04771); test: flow cytometry, 70 nM antibody on HEK293/hACVR1-R206H cells, 4C
[3] = molecular target: human ACVR1 extracellular domain expressed with a C-terminal myc-myc-hexahistidine tag (human); test: BLI (Octet) cross-competition: hACVR1.mmh captured on anti-His biosensor, saturated with 1st mAb REGN 5166 (50 ug/mL), then dipped into 2nd mAb Isotype Control (50 ug/mL); white cell
[4] = molecular target: human ACVR1 extracellular domain expressed with a C-terminal myc-myc-hexahistidine tag (human); test: BLI (Octet) cross-competition: hACVR1.mmh captured on anti-His biosensor, first dipped into 1st mAb Isotype Control (50 ug/mL), then into 2nd mAb Isotype Control (50 ug/mL); dotted cell (self-self)
[5] = molecular target: human ACVR1 extracellular domain expressed with a C-terminal myc-myc-hexahistidine tag (human); test: BLI (Octet) cross-competition: hACVR1.mmh captured on anti-His biosensor, saturated with 1st mAb REGN 5167 (50 ug/mL), then dipped into 2nd mAb Isotype Control (50 ug/mL); white cell
[6] = molecular target: human ACVR1 extracellular domain expressed with a C-terminal myc-myc-hexahistidine tag (human); test: BLI (Octet) cross-competition: hACVR1.mmh captured on anti-His biosensor, saturated with 1st mAb REGN 5168 (50 ug/mL), then dipped into 2nd mAb Isotype Control (50 ug/mL); white cell
dimeric human ACVR1 = molecular target: T1, dimeric human ACVR1; test: SPR Biacore T200, mAb captured by anti-human Fab, 100 nM dimeric receptor injected, 25C
Protocol: (§1) ACVR1 mAbs were tested for cross-reactivity to a panel of bone morphogenic protein type 1 receptors including human and mouse ACVR1, BMPR1A, and BMPR1B, as well as ACVRL1 on a Biacore T200 as follows. In order to measure the specificity of ACVR1 mAbs, ACVR1 mAbs were captured with anti-human Fab immobilized on a CM5 chip. 100 nM or 10 nM of dimeric human or mouse ACVR1, ACVRL1, BMPR1A or BMPR1B were injected at 30 μL/min for 2 min (duplicate injections) and the experiment was performed at 25° C. Binding of different receptors to the captured mAb was determined using Scrubber 2.0c software.

dimeric mouse ACVR1 = molecular target: T2, dimeric mouse ACVR1; test: as above
Protocol: as §1

dimeric human ACVRL1 = molecular target: T8, dimeric human ACVRL1 (human, UniProt P37023 22-118, limits assumed); test: as above
T8 construct: Construct and dimerising part not described; also called Human Receptor ACVRL1
Protocol: as §1

dimeric mouse ACVRL1 = molecular target: T3, dimeric mouse ACVRL1; test: as above
Protocol: as §1

dimeric human BMPR1B = molecular target: T4, dimeric human BMPR1B; test: as above
Protocol: as §1

dimeric human BMPR1A = molecular target: T9, dimeric human BMPR1A (human, UniProt P36894 24-152, limits assumed); test: as above
T9 construct: Construct and dimerising part not described; also called Human Receptor BMPR1A
Protocol: as §1

dimeric mouse BMPR1A = molecular target: T10, dimeric mouse BMPR1A (mouse, UniProt P36895 24-152, limits assumed); test: as above
T10 construct: Construct and dimerising part not described; also called Mouse Receptor BMPR1A
Protocol: as §1

dimeric mouse BMPR1B = molecular target: T5, dimeric mouse BMPR1B; test: as above
Protocol: as §1

[7] = molecular target: T6, mouse ACVR1 extracellular domain …; test: SPR, mACVR1.mmh captured by anti-myc antibody on CM5, Fab injected, 37C
Protocol: (§2) In order to measure the binding constants of ACVR1 Fabs, mACVR1.mmh was captured with a myc antibody (REGN 642) immobilized on a CM5 chip. Different concentrations of ACVR1 Fabs were injected over mACVR1.mmh at 37° C. Binding rate constants and equilibrium dissociation rate constants were calculated by fitting data using 1:1 Langmuir binding model (Scrubber 2.0c).

[8] = molecular target: T7, human ACVR1 extracellular domain …; test: SPR, hACVR1.mmh captured by anti-myc antibody on CM5, Fab injected, 37C
Protocol: as §2, with “hACVR1.mmh” for “mACVR1.mmh”, “(REGN642)” for “(REGN 642)”

T9 sequence (P36894 24-152 limits assumed): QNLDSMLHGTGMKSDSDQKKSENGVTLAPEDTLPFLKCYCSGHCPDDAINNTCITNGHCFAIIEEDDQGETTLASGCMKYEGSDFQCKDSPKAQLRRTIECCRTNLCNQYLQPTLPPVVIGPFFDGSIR
T10 sequence (P36895 24-152 limits assumed): as the sequence (P36894 24-152 limits assumed) above, with S16L, S21P, A74T counted along it
T8 sequence (P37023 22-118 limits assumed): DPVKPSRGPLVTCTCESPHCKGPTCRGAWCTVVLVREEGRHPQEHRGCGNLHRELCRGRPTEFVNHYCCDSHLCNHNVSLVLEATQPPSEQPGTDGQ

Molecule | Kd [7] [pM] | koff [7] [s⁻¹] | kon [7] [M⁻¹ s⁻¹] | t1/2 [7] [h] | Kd [8] [pM] | koff [8] [s⁻¹] | kon [8] [M⁻¹ s⁻¹] | t1/2 [8] [h] | also measured
Alexa Fluor-647 conjugated secondary antibody (Jackson ImmunoResearch, anti-human #109-607-003) | – | – | – | – | – | – | – | – | MFI-Normalized to Unstained Control [1]: 1 fold
human IgG control antibody | – | – | – | – | – | – | – | – | MFI-Normalized to Unstained Control [2]: 3 fold
isotype-matched negative control (Example 5) (antibody) | – | – | – | – | – | – | – | – | wavelength shift of 2nd mAb binding [3]: 0.05 nm; wavelength shift of 2nd mAb binding [4]: 0.07 nm; wavelength shift of 2nd mAb binding [5]: 0.05 nm; wavelength shift of 2nd mAb binding [6]: 0.04 nm
Isotype control (Example 4) (antibody) | – | – | – | – | – | – | – | – | 100 nM Human Receptor Binding (dimeric human ACVR1): 11 RU; 100 nM Mouse Receptor Binding (dimeric mouse ACVR1): 8 RU; 100 nM Human Receptor Binding (dimeric human ACVRL1): 2 RU; 100 nM Mouse Receptor Binding (dimeric mouse ACVRL1): 2 RU; 100 nM Human Receptor Binding (dimeric human BMPR1B): 19 RU; 100 nM Human Receptor Binding (dimeric human BMPR1A): 1 RU; 100 nM Mouse Receptor Binding (dimeric mouse BMPR1A): 7 RU; 100 nM Mouse Receptor Binding (dimeric mouse BMPR1B): 1 RU

More lines, main results first:

Kd [7] [pM] | koff [7] [s⁻¹] | kon [7] [M⁻¹ s⁻¹] | t1/2 [7] [h] | Kd [8] [pM] | koff [8] [s⁻¹] | kon [8] [M⁻¹ s⁻¹] | t1/2 [8] [h] | Molecule | also measured
160 | 0.000105 | 653000 | 1.83 | 154 | 0.000106 | 690000 | 1.82 | REGN 5166 Fab (Fab, V domains shown, also called ACVR1 Fab) VH: QVQLVESGGGVVQPGRSLRLSCAASGFTFSAYWMHWVRQAPGKGLEWVAVISYDGSNKYYADSVKGRFTISRDHSKNTLYLQMNSLRAEDTAVYYCAKGDAYDSWRILLGGDYYGMDVWGQGTTVTVSS VL: EIVLTQSPGTLSLSPGERATLSCRASQSVSSSYLAWYQQKPGQAPRPLIYGASSRATGIPDRFSGSGSGTDFTLTISRLEPEDFAVYYCQQGGDAPPYTFGGGTKVEIK | –
178 | 9.72e-05 | 545000 | 1.98 | 170 | 9.36e-05 | 549000 | 2.05 | REGN 5167 Fab (Fab, V domains shown, also called ACVR1 Fab) VH: QLQLQESGPGLVKPSETLSLTCTVSGGSITSSSYYWAWIRQPPGKGLEWIGKIYYSGSTHYNPSLKSRVTISVDTSKNQFSLKLSSVTAADTAVYYCARVGGHGYGDSAGLAFDIWGQGTMVTVSS VL: EIVLTQSPGTLSLSPGERATLSCRASQSVSSAFLAWYQQKPGQAPRLLIYGASYRHTGIPDRFSGSGSGTDFTLTISRLEPEDFAVYYCQHYGVGPRTFGGGTKVEIK | –
